The target in the experiment is soluble HLA-E-VL9, HLA-E*01:03 heavy chain refolded with β2-microglobulin and synthetic VL9 peptide (Homo sapiens, HLA-E*01:03, strain).

Where a chain is given by its changes, count along the chain named.

B1: CA172 (antibody, V domains shown)
VH: QVQLVESGGGLVKPGGSLRLSCAASGFTFSDYYMSWIRQAPGKGLEWVSYISSSSSYTNYADSVKGRFTISRDNAKNSLYLQMNSLRAEDTAVYYCARALRYFDWYDYWGQGTLVTVSS
VL: EIVLTQSPDFQSVTPKGKVTITCRASQSIGSSLHWYQQKPDQSPKLLIKYASQSFSGVPSRFSGSGSGTEFTLTISSLQPEDFATYYCQQLNSYSPITFGQGTRLEIK
Consider B1, for which the binding result is “binds”.

B2: CA173 (antibody, V domains shown)
VH: EVQLVESGGGLVKPGGSLRLSCAASGFTFSSYSMNWVRQAPGEGLEWVSSISSSSTYIYYADSVKGRFTISRDNAKNSLYLQMNSLRAEDTAVYYCARDRPAGSSSLGSGYFDLWGRGTLVTVSS
VL: not shown
With B2, the binding result is listed as “binds”.

B3: CA175 (antibody, V domains shown)
VH: EVQLVESGGGLVQPGGSLRLSCAASGFTFSTYPMNWVRQAPGKGLEWVSYISSSSSTIYYADCVKGRFTISRDNAKNSLYLQMNSLRDEDTAVYYCARYYIAYGMDVWGQGTTVTVSS
VL: DIQMTQSPSSMSASVGDRVTITCRASQGISNYLAWFQQKPGKAPKRLIYGASSLHRGVPSRFSGSGSGTEFTLTITSLQPEDFATYYCLQHNTYPRTFGQGTKVEIK
On to B3, for which the binding result is on record as “binds”.

B4: CA163 (antibody, V domains shown)
VH: QVQLVQSGAGASVKVSCKASGNTFTSYGISWVRQAPGQGLEWMGWIIPYNGNTNYAQKFQGRVTMTTDTSTSTAYMELRSLRSDDTAVYYCARDGEVGAFDNYYYYCGYGVIVTTAS
VL: not shown
With B4, the binding result is reported as “binds”.

B5: CA171 (antibody, V domains shown)
VH: EVQLVESGGGLVQPGGSLRLSCAASGFTFSSYSMNWVRQAPGKGLEWVSYISSSSSTIYYADSVKGRFTISRDNAKNSLYLQMNSLRAEDTAVYYCARTFYSNYLDAFDIWGQGTMVTVSS
VL: EIVLTQSPDTLSMCPGERATLSCRASQSVSSYLAWYQQKPGQAPRLLIYDASNRATGIPARFSGSGSGTDFTLTISSLEPEDFAVYYCQQRSNWLSMYTFGQGTKLEIK
Consider B5, for which the binding result was “binds”.

B6: CA166 (antibody, V domains shown)
VH: EVQLVESGGGLVKPGGSLRLSCAASGFTFSSYSMNWVRQAPGKGLEWVSSISSSSSYIYYADSVKGRFTISRDNAKNSLYLQMNSLRAEDTAVYYCARVMITFGGADYWGQGTLVTVSS
VL: DIQMTQSPSSLSASVGDRVTITCRASQNINTYLNWYQKRPGIAPKLLIYGASSLQSGVPSRFSGSGSGTDFTLTISSLQPEDFATYYCQQYHTSPLTFGGGTPVDIK
As for B6, the binding result is “binds”.

B7: CA170 (antibody, V domains shown)
VH: B6 VH with V99D, M100R, I101D, T102L, F103L, G104D, G105A, A106F, Y108I, L114M
VL: SYVLTQPPSVSVAPGQTARITCGGNNIGSKSVHWYQQKPGQAPVLVVYDDSDRPSGIPERFSGSNSGNTATLTISRVEAGDEADYYCQVWDSSSDHPWVFGGGTKLTVL
Regarding B7, the binding result is given as “binds”.

B8: CA169 (antibody, V domains shown)
VH: EVQLVESGGGLVKPGGSLRLSCAASGFTFSSYSMNWVRQAPGKGLEWVSSISSSSSYIYYADSVKGRFTISRDNAKNSLYLQMNSLRAEDTAVYYCASGVLLEAFDYWGQGTLVTVSS
VL: SYVLTQPPSVSVAPGQTARITCGGNNIGSKSVHWYQQKPGQAPVLVVYDDSDRPSGIPERFSGSNSGNTATLTISRVEAGDEADYYCQVWDSSSDHVVFGGGTKLTVL
For the molecule B8, the binding result was “binds”.

B9: CA168 (antibody, V domains shown)
VH: QVQLVQSGAEVKKPGSSVKVSCKASGGTFSSYAISWVRQAPGQGLEWMGGIIPIFGTANYAQKFQGRVTITADKSTSTAYMELSSLRSEDTAVYYCARALTYYDFPDYGMDVWGQGTTVTVSS
VL: QSALTQPPSASGSPGQSVTISCTGTSSDVGGYNYVSWYQQHPGKVPKLMIYEVTKRPSGVPDRFSGSKSGNTASLTVSGLQAEDEADYYCSSYAGSNNLVFGGGTKLTVL
For B9, the binding result is on record as “binds”.

Values taken from PMC8960791 (Communications Biology, 2022).
